Data: patent publication US20220098591, “STEM-LOOP COMPOSITIONS AND METHODS FOR INHIBITING VASCULAR ENDOTHELIAL GROWTN FACTOR” (DRIVE THERAPEUTICS LLC, published 2022)

Experiments:
[1] = molecular target: T1, VEGF-A121 (Homo sapiens, UniProt P15692 SEQ:1-121); test: competition; AlphaLISA, blocks KDR binding; settings: tags: glycan-biotinylated for SPR/FRET/AlphaLISA; Acro BioSystems, Biolegend; chain copies: 2 (stated); stem-loop
Target sequence in this assay (P15692 other isoform, or with tags, fused parts or gaps): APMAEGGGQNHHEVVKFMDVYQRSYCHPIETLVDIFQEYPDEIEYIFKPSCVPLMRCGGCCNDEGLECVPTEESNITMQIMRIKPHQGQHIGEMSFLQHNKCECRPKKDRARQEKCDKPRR

[2] = molecular target: T1, VEGF-A121; test: direct TR-FRET, RT; error not given; settings: tags: glycan-biotinylated for SPR/FRET/AlphaLISA; Acro BioSystems, Biolegend; chain copies: 2 (stated); stem-loop
Experimental: (§1) Briefly, ALEXA FLUOR® 647-labeled aptamers were heated to 90° C. for 3 minutes and cooled to room temperature. Titrations of ALEXA FLUOR® 647-labeled aptamers and ALEXA FLUOR® 647-labeled anti-VEGF-A antibody were made in TR-FRET buffer (50 mM MOPS, pH 7.4, 125 mM NaCl, 5 mM KCl, 50 μM CHAPS, 0.1 mg/mL BSA, 1 mM CaCl₂, and 1 mM MgCl₂) in a polypropylene plate. 5 μL of aptamers or antibody were transferred to the black wall low volume 384 well assay plate (Greiner), followed by 5 μL glycan biotinylated VEGF-A₁₂₁ (2.5 nM final), and 5 μL Streptavidin-Eu (Perkin Elmer; 2.5 nM final). The plate was covered with a plate seal and subsequently incubated in the dark for 2 hours at room temperature. The plate was read on a Biotek CYTATION™ 5 plate reader. Samples were excited at 330 nm and fluorescent values were collected at 665 nm.
(§2) No protein background fluorescent values were averaged and subtracted from test compounds, with data normalized as a fold change to highest concentrations of aptamers and antibody. These values were fit using a four-parameter non-linear fit in GraphPad Prism Version 7.0.

[3] = molecular target: T2, VEGF-A165 (Homo sapiens); test: competition; AlphaLISA, blocks KDR binding; settings: tags: glycan-biotinylated for SPR/FRET/AlphaLISA; Acro BioSystems, R&D Systems; chain copies: 2 (inferred); stem-loop
T2 chain: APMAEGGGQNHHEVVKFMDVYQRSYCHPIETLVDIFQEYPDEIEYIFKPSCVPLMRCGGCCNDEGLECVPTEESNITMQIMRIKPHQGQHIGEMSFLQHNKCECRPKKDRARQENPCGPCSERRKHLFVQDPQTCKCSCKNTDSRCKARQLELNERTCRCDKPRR
Experimental: Briefly, the aptamers were heated at 90° C. for 3 minutes and allowed to cool to room temperature for a minimum of 10 minutes. Aptamers and anti-VEGF-A antibody were serial diluted in a polypropylene plate and 5 μL was transferred to a white low volume 384 well Optiplate (Perkin Elmer). A solution of VEGF-A₁₆₅ (Acro BioSystems) or VEGF-A₁₂₁ (Acro BioSystems) that was glycan biotinylated was prepared and added to the assay plate containing aptamers or anti-VEGF-A antibody to yield a final assay concentration of 2 nM. A mixture of human recombinant his-tagged KDR, (Sino Biological), AlphaLISA® nickel chelate acceptor beads (Perkin Elmer), and AlphaScreen® streptavidin donor beads (Perkin Elmer) was then prepared and 10 μL was added to the assay plate. The final concentrations of KDR and beads were 5 nM and 5 ug/mL, respectively. The assay plate was sealed and incubated in the dark for approximately 2 hours, after which it was read on a Biotek CYTATION™ 5 plate reader using the Alpha 384 well optical cube. The low signal control was determined using excess anti-VEGF-A inhibitor and the high signal control was determined by buffer only.
The mechanism of action of lead aptamers was characterized by interrogating their ability to inhibit the VEGF-A:KDR interaction with both VEGF-A₁₆₅ and VEGF-A₁₂₁.

[4] = molecular target: T2, VEGF-A165; test: direct TR-FRET, MOPS pH 7.4, 1 mM CaCl2, 1 mM MgCl2, RT; settings: tags: glycan-biotinylated for SPR/FRET/AlphaLISA; Acro BioSystems, R&D Systems; chain copies: 2 (inferred); stem-loop
[5] = molecular target: T1, VEGF-A121; test: SPR; HEPES pH 7.4, 1 mM MgCl2, 1 mM CaCl2; settings: tags: glycan-biotinylated for SPR/FRET/AlphaLISA; Acro BioSystems, Biolegend; chain copies: 2 (stated); stem-loop
Experimental: (§3) Aptamer 26 was identical in sequence to Aptamer 4.2 but contained a hexylamine linker in place of the C6 disulfide linker at the 5′ terminus. […] Briefly, in the SPR studies, 1.0-2.5 μg/mL of glycan biotinylated VEGF-A₁₆₅, VEGF-A₁₂₁, and VEGF-A₁₁₀ were diluted in HEPES running buffer (10 mM HEPES, 137.5 mM NaCl, 5.7 mM KCl, 1 mM MgCl₂, 1 mM CaCl₂, and 0.05% Tween20; pH 7.4) and immobilized to a streptavidin dextran chip (GE Healthcare Life Sciences) for 1-2 minutes. The chip was then blocked with 0.2 mg/mL biotin in running buffer, followed by 3 cycles of buffer blanks and regenerated with 50 mM NaOH to equilibrate the chip. […] After coating and blocking, samples were screened at 100 nM in duplicate injections at a flow rate of 25 μL/min, with an association time of 3 minutes 20 seconds and a dissociation time of 10 minutes. Regeneration conditions of chips were optimized based on the protein immobilized and effected with either 50 mM NaOH for 30 seconds or 2M guanidine HCl for 2×40 seconds.
(§4) Data was fit to a 1:1 kinetic binding model.

[6] = molecular target: T3, VEGF-A110 (Homo sapiens, UniProt P15692 SEQ:1-110); test: SPR; HEPES pH 7.4, 1 mM MgCl2, 1 mM CaCl2; settings: tags: glycan-biotinylated; chain copies: 2 (stated); stem-loop
Experimental: as §3, §4

[7] = molecular target: T2, VEGF-A165; test: SPR; HEPES pH 7.4, 137.5 mM NaCl, 1 mM MgCl2, 1 mM CaCl2; settings: tags: glycan-biotinylated for SPR/FRET/AlphaLISA; Acro BioSystems, R&D Systems; chain copies: 2 (inferred); stem-loop
Experimental: as §3, §4

[8] = molecular target: T1, VEGF-A121; test: competition; TR-FRET; also no pKDR inhibition at 100 nM; settings: tags: glycan-biotinylated for SPR/FRET/AlphaLISA; Acro BioSystems, Biolegend; chain copies: 2 (stated)
Experimental: (§5) Briefly, for competition TR-FRET, 2-fold dilutions of thermally equilibrated aptamers were made in TR-FRET Buffer (50 mM MOPS, pH 7.4, 125 mM NaCl, 5 mM KCl, 50 μM CHAPS, 0.1 mg/mL BSA, 1 mM CaCl₂, and 1 mM MgCl₂). 5 μL of aptamer or control solution was added to a 15 μL mix of glycan biotinylated […] (5 nM final), ALEXA FLUOR® 647-labeled Aptamer (30 nM final), and Streptavidin-Eu (Perkin Elmer; 2.5 nM final) in a black wall low volume 384 well plate (Greiner). For control, 5 μl of 1000-fold excess of unlabeled parent aptamer or 5 μl TR-FRET buffer alone was added to the mix of ALEXA FLUOR® 647-labeled aptamer, biotin-VEGF-A, and Streptavidin-Eu. The plate was covered with a plate seal and subsequently incubated in the dark for 1 hour at room temperature. The plate was read on a Biotek CYTATION™ 5 plate reader. Samples were excited at 330 nm and fluorescent values were collected at 665 nm. Data analysis was performed by subtracting the background value and plotting as percent inhibition, normalized to baseline in the absence of competitor. The values were fit by [Inhibitor] vs. response-Variable slope (four parameters) using GraphPad Prism Version 7.0 and then normalized to aptamer control to obtain an IC₅₀ relative to parent aptamer. Data is presented as log values of relative IC₅₀. […]

[9] = molecular target: T1, VEGF-A121; test: SPR; no binding at highest concentration (500 nM); settings: tags: glycan-biotinylated for SPR/FRET/AlphaLISA; Acro BioSystems, Biolegend; chain copies: 2 (stated)
Experimental: as §3, §4

[10] = molecular target: T3, VEGF-A110; test: SPR; no binding at highest concentration (500 nM); settings: tags: glycan-biotinylated; chain copies: 2 (stated)
Experimental: as §3, §4

[11] = molecular target: T2, VEGF-A165; test: cell_activity; partial (~80%) inhibition of KDR phosphorylation; no inhibition of KDR binding in AlphaLISA; settings: tags: glycan-biotinylated for SPR/FRET/AlphaLISA; Acro BioSystems, R&D Systems; chain copies: 2 (inferred)
Experimental: Briefly, HEK293 cells engineered to stably overexpress KDR were plated overnight in collagen coated 96 well plates at 50 k cells/well. Aptamers in SB1+ (40 mM HEPES, pH 7.5, 125 mM NaCl, 5 mM KCl, 1 mM MgCl₂) were heated to 90° C. for 3 minutes and allowed to cool to room temperature for a minimum of 10 minutes. […] 15 μL of VEGF-A was added to 15 μL titrated aptamer in a polypropylene plate and diluted to 300 μL with TS buffer (10 mM Tris pH 7.5; 100 mM NaCl; 5.7 mM KCl; 1 mM MgCl₂; 1 mM CaCl₂). The aptamer/VEGF-A mixture was incubated at 37° C. for 30 minutes, after which 100 μL was added to the cells for 5 minutes at 37° C. in 5% CO₂. Treatments were aspirated from cells, and cells were lysed with 100 μL cold lysis buffer [20 mM Tris-HCl, pH 7.5, 150 mM NaCl, 1 mM EDTA, 1% Triton X-100, 0.5 mM sodium orthovanadate (freshly prepared), 1 mM PMSF (freshly prepared), lx protease inhibitor cocktail (freshly prepared)] on ice for 10 minutes. […]
To perform the AlphaLISA® assay, 10 μL of cell lysis was transferred to a white low volume 384 well Optiplate (Perkin Elmer). […] The assay plate was sealed and incubated in the dark for approximately 2 hours, then was read on a Biotek CYTATION™ 5 plate reader using the Alpha 384 well optical cube. Percent inhibition was calculated by subtracting TS buffer background from each value and normalizing to VEGF-A only controls. […]

[12] = molecular target: T2, VEGF-A165; test: SPR; HBD-binding aptamer; settings: tags: glycan-biotinylated for SPR/FRET/AlphaLISA; Acro BioSystems, R&D Systems; chain copies: 2 (inferred)
Experimental: as §3, §4

[13] = molecular target: T2, VEGF-A165; test: competition; AlphaLISA, blocks KDR binding; limited by VEGF-A concentration; settings: tags: glycan-biotinylated for SPR/FRET/AlphaLISA; Acro BioSystems, R&D Systems; chain copies: 2 (inferred); stem-loop
[14] = molecular target: T1, VEGF-A121; test: direct TR-FRET, RT; settings: tags: glycan-biotinylated for SPR/FRET/AlphaLISA; Acro BioSystems, Biolegend; chain copies: 2 (stated); stem-loop
Experimental: as §1, §2

[15] = molecular target: T2, VEGF-A165; test: direct TR-FRET, RT; limited by VEGF-A concentration; settings: tags: glycan-biotinylated for SPR/FRET/AlphaLISA; Acro BioSystems, R&D Systems; chain copies: 2 (inferred); stem-loop
[16] = molecular target: T1, VEGF-A121; test: competition; TR-FRET; stem S3 mispaired; settings: tags: glycan-biotinylated for SPR/FRET/AlphaLISA; Acro BioSystems, Biolegend; chain copies: 2 (stated)
Experimental: as §5

[17] = molecular target: T1, VEGF-A121; test: competition; TR-FRET; stem S2 mispaired; settings: tags: glycan-biotinylated for SPR/FRET/AlphaLISA; Acro BioSystems, Biolegend; chain copies: 2 (stated)
Experimental: as §5

B1: Aptamer 26 (ssRNA)
RNA: UAGGCCGCCUCCGCGCGGAGGGGUUUCAUUAUCCCGUUUGGCGGCUUU
modifications: all G 2'-F; all A,C,U 2'-OMe; 5' C6NH2; 3' idT (Tables 14-16 print it without the terminal U residues)
Work on B1 yielded an IC50 [1] of 19 nM, a Kd [2] of 46 nM and an IC50 [3] of 3.7 nM. It also gave a Kd [4] of 4 nM, a Kd [5] of 4.6 nM and a Kd [6] of 9.9 nM. The Kd [7] was 0.5 nM.

With UAGGCCGCCUCCGCGCGGGGGGGUUUCAUUAUCCCGUUUGGCGGCUUU (ssRNA, all G 2'-F; A,C,U 2'-OMe; 5' C6NH2; 3' idT) [Aptamer 27] the binding signal [8] was > 100 fold worse IC50 vs Aptamer 26.

CGGAAUCAGUGAAUGCUUAUACAUCCG (ssRNA, 2'-F C and U; 2'-OMe G and A except AA at positions 4-5; 5' C6NH2; 3' idT) [Aptamer 7] was tested, and the binding result [9] was “no binding”, the binding result [10] was “no binding” and the IC50 [11] was 2.2 nM. The Kd [12] was 0.6 nM.

B2: Aptamer 141 (ssRNA)
RNA: AGGCCGACCCGCGCGGAGGGGUUUCAUUAUCCCGUUUGUCGGCUU
modifications: all G 2'-F; A,C,U 2'-OMe; Sp3 joins the two parts (position 9); 5' C6NH2; 3' idT
With B2 the IC50 [13] was 0.81 nM, the IC50 [1] was 3.2 nM and the Kd [14] was 4.3 nM. The Kd [15] was 1.2 nM.

In the case of AGGCCGCCUCCGCGCGGAGCCGUUUCAUUAUCCCGUUUGGCGGCUU (ssRNA, all G 2'-F; A,C,U 2'-OMe; 5' C6NH2; 3' idT) [Aptamer 184], the binding signal [16] is reported as > 100 fold worse IC50 vs Aptamer 26.

With AGGCCGCCUCCGCGCGGAGGGGUUUCAUUAUAACGUUUGGCGGCUU (ssRNA, all G 2'-F; A,C,U 2'-OMe; 5' C6NH2; 3' idT) [Aptamer 185] the binding signal [16] was > 100 fold worse IC50 vs Aptamer 26.

AGGCCGCCUUUGCGCUUAGGGGUUUCAUUAUCCCGUUUGGCGGCUU (ssRNA, all G 2'-F; A,C,U 2'-OMe; 5' C6NH2; 3' idT) [Aptamer 182] was tested, and the binding signal [17] was > 100 fold worse IC50 vs Aptamer 26.

AGGCCGCCUCCGCGCCCAGGGGUUUCAUUAUCCCGUUUGGCGGCUU (ssRNA, all G 2'-F; A,C,U 2'-OMe; 5' C6NH2; 3' idT) [Aptamer 183] was tested, and the binding signal [17] was > 100 fold worse IC50 vs Aptamer 26.
